Laboratory results taken from paper PMC4138556.
pIC50: −log10 of the molar value.

Biological target: D/D domain of human regulatory RIIα subunits of PKA (human)
Assay: AlphaScreen or HTRF

D/D domain of human regulatory RIIα subunits of PKA (human), sequence (P13861 2-44): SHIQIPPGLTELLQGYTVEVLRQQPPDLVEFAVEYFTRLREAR

- pIC50: 7.90
Substance: peptide AKAP18δ-L314E
